B1: C37 Fab (papain digestion of the mAb) (Fab, V domains shown)
VH: QVQLQESGPGLVKPSETLSLTCTVSGGSIGSSSYYWGWIRQPPGKGLQWIGSFHYSGTTYYNPSLKSRVTISVDTSKNHFSLKLSSVTAADTAVYYCASRQNWNDGYFDYWGQGTLVTVSS
VL: DIQMTQSPATLSLSPGERATLFCRASQSVSSSLAWYQQKPGQAPRLLIYDASNRATGIPARFSGSGSGTDFTLTISSLEPEDFAVYYCQQRGNWPPITFGQGTRLDTK
B2: C37 IgG (antibody, V domains shown)
VH: QVQLQESGPGLVKPSETLSLTCTVSGGSIGSSSYYWGWIRQPPGKGLQWIGSFHYSGTTYYNPSLKSRVTISVDTSKNHFSLKLSSVTAADTAVYYCASRQNWNDGYFDYWGQGTLVTVSS
VL: DIQMTQSPATLSLSPGERATLFCRASQSVSSSLAWYQQKPGQAPRLLIYDASNRATGIPARFSGSGSGTDFTLTISSLEPEDFAVYYCQQRGNWPPITFGQGTRLDTK
B3: C34 IgG (antibody, V domains shown)
VH: EVQLVESGGGLVQPGRSLRLSCAASGFTFDDYAMHWVRQAPGKGLEWVSGISWNSGSIGYADSVKGRFTISRDNAKNSLYLQMNSLRAEDTALYYCAKDMGYSGNDDYYGMDVWGQGTTVTVSS
VL: DIQLTQSPSSLSASVGDRVTITCRASQRISSYLNWYQQKPGKAPKLLIYGAFSLQSGVPSRFSGSGSGTDFTLTISSLQPEDFATYYCQQSYRTLTRTFGQGTKVEIK
B4: C34 Fab (papain digestion of the mAb) (Fab, V domains shown)
VH: EVQLVESGGGLVQPGRSLRLSCAASGFTFDDYAMHWVRQAPGKGLEWVSGISWNSGSIGYADSVKGRFTISRDNAKNSLYLQMNSLRAEDTALYYCAKDMGYSGNDDYYGMDVWGQGTTVTVSS
VL: DIQLTQSPSSLSASVGDRVTITCRASQRISSYLNWYQQKPGKAPKLLIYGAFSLQSGVPSRFSGSGSGTDFTLTISSLQPEDFATYYCQQSYRTLTRTFGQGTKVEIK

These binders were tested against infectious CHIKV virion particle with E3 associated (strain CHIKV-181/25) (Chikungunya virus) (UniProt Q8JUX5).
Chain of infectious CHIKV virion particle with E3 associated (strain CHIKV-181/25) (Chikungunya virus) (Q8JUX5 whole entry, looked up): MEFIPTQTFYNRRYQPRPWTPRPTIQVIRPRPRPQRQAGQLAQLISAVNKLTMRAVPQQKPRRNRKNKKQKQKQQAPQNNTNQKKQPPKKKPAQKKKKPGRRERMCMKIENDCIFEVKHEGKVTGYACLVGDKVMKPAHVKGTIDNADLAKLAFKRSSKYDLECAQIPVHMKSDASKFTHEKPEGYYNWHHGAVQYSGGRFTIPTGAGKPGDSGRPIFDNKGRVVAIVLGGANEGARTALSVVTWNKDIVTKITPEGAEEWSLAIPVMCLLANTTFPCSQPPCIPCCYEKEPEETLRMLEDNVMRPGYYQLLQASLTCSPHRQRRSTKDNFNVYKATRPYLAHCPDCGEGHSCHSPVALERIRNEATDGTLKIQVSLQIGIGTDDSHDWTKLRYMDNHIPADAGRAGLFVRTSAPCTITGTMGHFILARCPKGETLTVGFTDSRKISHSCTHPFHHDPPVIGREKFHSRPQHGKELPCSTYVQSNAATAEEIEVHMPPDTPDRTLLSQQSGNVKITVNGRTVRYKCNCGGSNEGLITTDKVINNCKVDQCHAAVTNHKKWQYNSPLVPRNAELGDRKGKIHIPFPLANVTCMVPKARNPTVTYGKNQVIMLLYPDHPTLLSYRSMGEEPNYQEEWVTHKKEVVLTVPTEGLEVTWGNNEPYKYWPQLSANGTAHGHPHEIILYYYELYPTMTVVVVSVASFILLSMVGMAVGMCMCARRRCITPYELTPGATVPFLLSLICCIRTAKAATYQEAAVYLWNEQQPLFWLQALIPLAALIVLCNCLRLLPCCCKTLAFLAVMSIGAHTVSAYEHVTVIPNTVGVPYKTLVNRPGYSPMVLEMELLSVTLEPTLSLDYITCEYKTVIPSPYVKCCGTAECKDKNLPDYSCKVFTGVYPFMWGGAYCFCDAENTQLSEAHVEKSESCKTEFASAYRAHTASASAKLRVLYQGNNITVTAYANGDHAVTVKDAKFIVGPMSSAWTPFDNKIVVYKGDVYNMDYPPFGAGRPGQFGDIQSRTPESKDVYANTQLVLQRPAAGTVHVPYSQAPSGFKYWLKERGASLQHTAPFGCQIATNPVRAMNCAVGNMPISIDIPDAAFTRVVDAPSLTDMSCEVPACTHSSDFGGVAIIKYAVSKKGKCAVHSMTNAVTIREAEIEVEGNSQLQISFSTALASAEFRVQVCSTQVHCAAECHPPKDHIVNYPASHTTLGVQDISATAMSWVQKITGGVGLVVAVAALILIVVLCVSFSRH

In order of falling PRNT50, post-attachment neutralisation assay on Vero cells:
1. B1  727 ng/mL
2. B2  164 ng/mL
3. B4  97 ng/mL
4. B3  48.7 ng/mL

— publication PMC12583524
